From article PMC7865074, “Role of PDZ-binding motif from West Nile virus NS5 protein on viral replication” (Scientific Reports, 2021)
Ends that are not written are not given here.

T1: biotinylated WNV NS5 PBM peptide (West Nile virus, also: biotinyl group, end not given here)
T1 construct: bait of the holdup assay; also called 13-mer peptide; source: synthetic peptide (solid phase, Fmoc; Proteogenix)
T1 peptide: RYEDTTLVEDTVL


Target: T1, biotinylated WNV NS5 PBM peptide
Assay: holdup assay (automated high-throughput chromatography); biotinylated NS5 PBM peptide as bait against 259 human PDZ domains expressed in E. coli; read-out binding intensity (BI), mean of replicates; BI threshold 0.2 for a significant interaction

| Binder | BI (holdup binding intensity) |
| --- | --- |
| Membrane-associated guanylate kinase, WW and PDZ domain-containing protein 3, PDZ domain 2 (holdup construct) (domain or fragment, human, UniProt Q5TCQ9 410-492, looked up, also called MAGI3 _2; source: E. coli, PDZome V.2 library, high-throughput expression) RASLKKSTMGFGFTIIGGDRPDEFLQVKNVLKDGPAAQDGKIAPGDVIVDINGNCVLGHTHADVVQMFQLVPVNQYVNLTLCR | 0.61 |
| Rho guanine nucleotide exchange factor 12, PDZ domain (holdup construct) (domain or fragment, human, UniProt Q9NZN5 72-151, looked up, also called ARHGEF12; source: E. coli, PDZome V.2 library, high-throughput expression) CVIIQKDDNGFGLTVSGDNPVFVQSVKEDGAAMRAGVQTGDRIIKVNGTLVTHSNHLEVVKLIKSGSYVALTVQGRPPGS | 0.25 |
| Protein piccolo, PDZ domain (holdup construct) (domain or fragment, human, UniProt Q9Y6V0 4496-4590, looked up, also called PCLO; source: E. coli, PDZome V.2 library, high-throughput expression) RIKITRDSKDHTVSGNGLGIRIVGGKEIPGHSGEIGAYIAKILPGGSAEQTGKLMEGMQVLEWNGIPLTSKTYEEVQSIISQQSGEAEICVRLDL | < 0.15 |
| PDZ domain-containing protein GIPC3, PDZ domain (holdup construct) (domain or fragment, human, UniProt Q8TF64 112-192, looked up, source: E. coli, PDZome V.2 library, high-throughput expression) EVEVTKTEDALGLTITDNGAGYAFIKRIKEGSIINRIEAVCVGDSIEAINDHSIVGCRHYEVAKMLRELPKSQPFTLRLVQ | < 0.15 |
| Disks large homolog 1, PDZ domain 2 (holdup construct) (domain or fragment, human, UniProt Q12959 319-405, looked up, also called DLG1_2; source: E. coli, PDZome V.2 library, high-throughput expression) EIKLIKGPKGLGFSIAGGVGNQHIPGDNSIYVTKIIEGGAAHKDGKLQIGDKLLAVNNVCLEEVTHEEAVTALKNTSDFVYLKVAKP | 0.22 |
| SH3 and multiple ankyrin repeat domains protein 2, PDZ domain (holdup construct) (domain or fragment, human, UniProt Q9UPX8 626-720, looked up, also called SHANK2; source: E. coli, PDZome V.2 library, high-throughput expression) TVVLQKKDNEGFGFVLRGAKADTPIEEFTPTPAFPALQYLESVDEGGVAWQAGLRTGDFLIEVNNENVVKVGHRQVVNMIRQGGNHLVLKVVTVT | 0.39 |
| Membrane-associated guanylate kinase, WW and PDZ domain-containing protein 1, PDZ domain 2 (holdup construct) (domain or fragment, human, UniProt Q96QZ7 472-554, looked up, also called MAGI1_2; source: E. coli, PDZome V.2 library, high-throughput expression) HTKLRKSSRGFGFTVVGGDEPDEFLQIKSLVLDGPAALDGKMETGDVIVSVNDTCVLGHTHAQVVKIFQSIPIGASVDLELCR | 0.55 |
| Na(+)/H(+) exchange regulatory cofactor NHE-RF2, PDZ domain 2 (holdup construct) (domain or fragment, human, UniProt Q15599 150-230, looked up, also called NHERF2_2; source: E. coli, PDZome V.2 library, high-throughput expression) RLCHLRKGPQGYGFNLHSDKSRPGQYIRSVDPGSPAARSGLRAQDRLIEVNGQNVEGLRHAEVVASIKAREDEARLLVVDP | 0.74 |
| Connector enhancer of kinase suppressor of ras 3, PDZ domain (holdup construct) (domain or fragment, human, UniProt Q6P9H4 211-293, looked up, also called CNKSR3; source: E. coli, PDZome V.2 library, high-throughput expression) EVHLPNIKPGEGLGMYIKSTYDGLHVITGTTENSPADRSQKIHAGDEVIQVNQQTVVGWQLKNLVKKLRENPTGVVLLLKKRP | < 0.15 |
| FERM and PDZ domain-containing protein 4, PDZ domain (holdup construct) (domain or fragment, human, UniProt Q14CM0 78-155, looked up, also called FRMPD4; source: E. coli, PDZome V.2 library, high-throughput expression) KVEMRRDPVLGFGFVAGSEKPVVVRSVTPGGPSEGKLIPGDQIVMINDEPVSAAPRERVIDLVRSCKESILLTVIQPY | 0.32 |
| Zona Occludens 3; Tight Junction Protein 3, PDZ domain 2 (holdup construct) (domain or fragment, human, UniProt O95049 195-272, looked up, also called TJP3_2; source: E. coli, PDZome V.2 library, high-throughput expression) SVLVKRRDSEEFGVKLGSQIFIKHITDSGLAARHRGLQEGDLILQINGVSSQNLSLNDTRRLIEKSEGKLSLLVLRDR | 0.23 |
| Rho GTPase-activating protein 21, PDZ domain (holdup construct) (domain or fragment, human, UniProt Q5T5U3 50-159, looked up, also called ARHGAP21; source: E. coli, PDZome V.2 library, high-throughput expression) TVTLKRTSQGFGFTLRHFIVYPPESAIQFSYKDEENGNRGGKQRNRLEPMDTIFVKQVKEGGPAFEAGLCTGDRIIKVNGESVIGKTYSQVIALIQNSDTTLELSVMPKD | 0.3 |
| SH3 and multiple ankyrin repeat domains protein 3, PDZ domain (holdup construct) (domain or fragment, human, UniProt Q9BYB0 646-740, looked up, also called SHANK3; source: E. coli, PDZome V.2 library, high-throughput expression) VAVLQKRDHEGFGFVLRGAKAETPIEEFTPTPAFPALQYLESVDVEGVAWRAGLRTGDFLIEVNGVNVVKVGHKQVVALIRQGGNRLVMKVVSVT | 0.39 |
| MAGUK p55 subfamily member 5, PDZ domain (holdup construct) (domain or fragment, human, UniProt Q8N3R9 256-336, looked up, also called MPP5; source: E. coli, PDZome V.2 library, high-throughput expression) IVRIEKARDIPLGATVRNEMDSVIISRIVKGGAAEKSGLLHEGDEVLEINGIEIRGKDVNEVFDLLSDMHGTLTFVLIPSQ | < 0.15 |
| Protein scribble homolog, PDZ domain 1 (holdup construct) (domain or fragment, also called SCRIB_1; source: E. coli, PDZome V.2 library, high-throughput expression) not shown | 0.27 |
| PDZ domain-containing protein 7, PDZ domain 3 (holdup construct) (domain or fragment, human, UniProt Q9H5P4 862-934, looked up, also called PDZD7_3; source: E. coli, PDZome V.2 library, high-throughput expression) TVTLSKMKQSLGISISGGIESKVQPMVKIEKIFPGGAAFLSGALQAGFELVAVDGENLEQVTHQRAVDTIRRA | 0.27 |
| Disks large homolog 4, PDZ domain 3 (holdup construct) (domain or fragment, human, UniProt P78352 313-393, looked up, also called DLG4_3; source: E. coli, PDZome V.2 library, high-throughput expression) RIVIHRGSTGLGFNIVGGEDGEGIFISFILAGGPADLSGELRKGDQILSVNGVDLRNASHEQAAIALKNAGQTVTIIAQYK | 0.24 |

| Binder | BI (holdup binding intensity) |
| --- | --- |
| Membrane-associated guanylate kinase, WW and PDZ domain-containing protein 2, PDZ domain 2 (holdup construct) (domain or fragment, human, UniProt Q86UL8 426-510, looked up, also called MAGI2_2; source: E. coli, PDZome V.2 library, high-throughput expression) STTLKKSNMGFGFTIIGGDEPDEFLQVKSVIPDGPAAQDGKMETGDVIVYINEVCVLGHTHADVVKLFQSVPIGQSVNLVLCRGY | 0.38 |
| Na(+)/H(+) exchange regulatory cofactor NHE-RF1, PDZ domain 1 (holdup construct) (domain or fragment, human, UniProt O14745 14-94, looked up, source: E. coli, PDZome V.2 library, high-throughput expression) LCCLEKGPNGYGFHLHGEKGKLGQYIRLVEPGSPAEKAGLLAGDRLVEVNGENVEKETHQQVVSRIRAALNAVRLLVVDPE | 0.68 |
| Synaptojanin-2-binding protein, PDZ domain (holdup construct) (domain or fragment, human, UniProt P57105 13-100, looked up, also called SYNJ2BP; source: E. coli, PDZome V.2 library, high-throughput expression) EINLTRGPSGLGFNIVGGTDQQYVSNDSGIYVSRIKENGAAALDGRLQEGDKILSVNGQDLKNLLHQDAVDLFRNAGYAVSLRVQHRL | 0.21 |
| Regulating synaptic membrane exocytosis protein 2, PDZ domain (holdup construct) (domain or fragment, human, UniProt Q9UQ26 668-754, looked up, also called RIMS2; source: E. coli, PDZome V.2 library, high-throughput expression) DGSVPRDSGAMLGLKVVGGKMTESGRLCAFITKVKKGSLADTVGHLRPGDEVLEWNGRLLQGATFEEVYNIILESKPEPQVELVVSR | < 0.15 |
| Partitioning defective 3 homolog, PDZ domain 3 (holdup construct) (domain or fragment, human, UniProt Q8TEW0 590-677, looked up, also called PARD3_3; source: E. coli, PDZome V.2 library, high-throughput expression) EVPLNDSGSAGLGVSVKGNRSKENHADLGIFVKSIINGGAASKDGRLRVNDQLIAVNGESLLGKTNQDAMETLRRSMSTEGNKRGMIQ | 0.29 |
| Microtubule-associated serine/threonine-protein kinase 1, PDZ domain (holdup construct) (domain or fragment, human, UniProt Q9Y2H9 967-1055, looked up, also called MAST1; source: E. coli, PDZome V.2 library, high-throughput expression) PITIQRSGKKYGFTLRAIRVYMGDTDVYSVHHIVWHVEEGGPAQEAGLCAGDLITHVNGEPVHGMVHPEVVELILKSGNKVAVTTTPFE | 0.52 |
| Protein scribble homolog, PDZ domain 3 (holdup construct) (domain or fragment, human, UniProt Q14160 1004-1093, looked up, also called SCRIB_3; source: E. coli, PDZome V.2 library, high-throughput expression) EIRLPRAGGPLGLSIVGGSDHSSHPFGVQEPGVFISKVLPRGLAARSGLRVGDRILAVNGQDVRDATHQEAVSALLRPCLELSLLVRRDP | 0.33 |
| Beta-1-syntrophin, PDZ domain (holdup construct) (domain or fragment, human, UniProt Q13884 112-195, looked up, also called SNTB1; source: E. coli, PDZome V.2 library, high-throughput expression) GVKVLKQELGGLGISIKGGKENKMPILISKIFKGLAADQTQALYVGDAILSVNGADLRDATHDEAVQALKRAGKEVLLEVKYMR | 0.22 |
| Partitioning defective 3 homolog B, PDZ domain 1 (holdup construct) (domain or fragment, human, UniProt Q8TEW8 201-289, looked up, also called PARD3B_1; source: E. coli, PDZome V.2 library, high-throughput expression) TRTVEISGEGGPLGIHVVPFFSSLSGRILGLFIRGIEDNSRSKREGLFHENECIVKINNVDLVDKTFAQAQDVFRQAMKSPSVLLHVLP | 0.48 |
| PDZ and LIM domain protein 1, PDZ domain (holdup construct) (domain or fragment, human, UniProt O00151 3-85, looked up, also called PDLIM1; source: E. coli, PDZome V.2 library, high-throughput expression) TQQIDLQGPGPWGFRLVGGKDFEQPLAISRVTPGSKAALANLCIGDVITAIDGENTSNMTHLEAQNRIKGCTDNLTLTVARSE | < 0.15 |
| PDZ domain-containing RING finger protein 3, PDZ domain 1 (holdup construct) (domain or fragment, human, UniProt Q9UPQ7 249-339, looked up, also called PDZRN3_1; source: E. coli, PDZome V.2 library, high-throughput expression) TLVLHRDSGSLGFNIIGGRPSVDNHDGSSSEGIFVSKIVDSGPAAKEGGLQIHDRIIEVNGRDLSRATHDQAVEAFKTAKEPIVVQVLRRT | 0.35 |
| Microtubule-associated serine/threonine-protein kinase 2, PDZ domain (holdup construct) (domain or fragment, human, UniProt Q6P0Q8 1104-1192, looked up, also called MAST2; source: E. coli, PDZome V.2 library, high-throughput expression) PIIIHRAGKKYGFTLRAIRVYMGDSDVYTVHHMVWHVEDGGPASEAGLRQGDLITHVNGEPVHGLVHTEVVELILKSGNKVAISTTPLE | 0.72 |
| 26S proteasome non-ATPase regulatory subunit 9, PDZ domain (holdup construct) (domain or fragment, human, UniProt O00233 108-195, looked up, also called PSMD9; source: E. coli, PDZome V.2 library, high-throughput expression) QARDMAEAHKEAMSRKLGQSESQGPPRAFAKVNSISPGSPASIAGLQVDDEIVEFGSVNTQNFQSLHNIGSVVQHSEGKPLNVTVIRR | < 0.15 |
| Na(+)/H(+) exchange regulatory cofactor NHE-RF2, PDZ domain 1 (holdup construct) (domain or fragment, human, UniProt Q15599 11-90, looked up, also called NHERF2_1; source: E. coli, PDZome V.2 library, high-throughput expression) LCRLVRGEQGYGFHLHGEKGRRGQFIRRVEPGSPAEAAALRAGDRLVEVNGVNVEGETHHQVVQRIKAVEGQTRLLVVDQ | 0.21 |
| PDZ domain-containing protein 4, PDZ domain (holdup construct) (domain or fragment, human, UniProt Q76G19 130-214, looked up, also called PDZD4; source: E. coli, PDZome V.2 library, high-throughput expression) EVELYKSSHRDKLGLMVCYRTDDEEDLGIYVGEVNPNSIAAKDGRIREGDRIIQINGVDVQNREEAVAILSQEENTNISLLVARP | < 0.15 |
| SH3 and multiple ankyrin repeat domains protein 1, PDZ domain (holdup construct) (domain or fragment, human, UniProt Q9Y566 663-757, looked up, also called SHANK1; source: E. coli, PDZome V.2 library, high-throughput expression) TVLLQKKDSEGFGFVLRGAKAQTPIEEFTPTPAFPALQYLESVDEGGVAWRAGLRMGDFLIEVNGQNVVKVGHRQVVNMIRQGGNTLMVKVVMVT | 0.39 |
| T-lymphoma invasion and metastasis-inducing protein 2, PDZ domain (holdup construct) (domain or fragment, human, UniProt Q8IVF5 890-976, looked up, also called TIAM2; source: E. coli, PDZome V.2 library, high-throughput expression) DVQLTKTGSVCDFGFAVTAQVDERQHLSRIFISDVLPDGLAYGEGLRKGNEIMTLNGEAVSDLDLKQMEALFSEKSVGLTLIARPPD | < 0.15 |
